In the Human Domainome abundance scans (Beltran et al. 2025):
± gives the uncertainty stated by the source.

B1: Nuclear receptor subfamily 1 group D member 2, residues 103 to 171; numbered along this chain, Q14995 (parent)
chain: CKVCGDVASGFHYGVHACEGCKGFFRRSIQQNIQYKKCLKNENCSIMRMNRNRCQQCRFKKCLSVGMSR

Variants of: B1
Assay: abundance fitness (aPCA) (normalised: wild type 0, dead -1); higher = more abundant; growth selection in yeast, the domain comes from the species named
Conditions: Homo sapiens
CKVCGDVASGFHYGVHACEGCKGFFRRSIQQNIQYKKCLYNENCSIMRMNRNRCQQCRFKKCLSVGMSR [K40Y] gave an abundance fitness of 0.26 ± 0.12. Variant CKVCGDVASGFHYGVHACEGCKGFFRRSIQQNIQYKKCLTNENCSIMRMNRNRCQQCRFKKCLSVGMSR [K40T] has an abundance fitness of 0.1 ± 0.079. CKVCGDVASGFHYGVHACEGCKGFFRRSIQQNIQYKKCLWNENCSIMRMNRNRCQQCRFKKCLSVGMSR [K40W] showed an abundance fitness of 0.227 ± 0.047. For CKVCGDVASGFHYGVHACEGCKGFFRRSIQQNIQYKKCLMNENCSIMRMNRNRCQQCRFKKCLSVGMSR [K40M], the abundance fitness was -0.059 ± 0.11. CKVCGDVASGFHYGVHACEGCKGFFRRSIQQNIQYKKCLSNENCSIMRMNRNRCQQCRFKKCLSVGMSR [K40S] showed an abundance fitness of 0.092 ± 0.056. CKVCGDVASGFHYGVHACEGCKGFFRRSIQQNIQYKKCLNNENCSIMRMNRNRCQQCRFKKCLSVGMSR [K40N] gave an abundance fitness of 0.246 ± 0.32. With CKVCGDVASGFHYGVHACEGCKGFFRRSIQQNIQYKKCLHNENCSIMRMNRNRCQQCRFKKCLSVGMSR [K40H] the abundance fitness was -0.12 ± 0.13. In the case of CKVCGDVASGFHYGVHACEGCKGFFRRSIQQNIQYKKCLRNENCSIMRMNRNRCQQCRFKKCLSVGMSR [K40R], the abundance fitness is reported as -0.029 ± 0.048. For CKVCGDVASGFHYGVHACEGCKGFFRRSIQQNIQYKKCLKFENCSIMRMNRNRCQQCRFKKCLSVGMSR [N41F], the abundance fitness was -0.717 ± 0.41. CKVCGDVASGFHYGVHACEGCKGFFRRSIQQNIQYKKCLKQENCSIMRMNRNRCQQCRFKKCLSVGMSR [N41Q] showed an abundance fitness of -0.285 ± 0.16. CKVCGDVASGFHYGVHACEGCKGFFRRSIQQNIQYKKCLKSENCSIMRMNRNRCQQCRFKKCLSVGMSR [N41S] showed an abundance fitness of -0.022 ± 0.096. With CKVCGDVASGFHYGVHACEGCKGFFRRSIQQNIQYKKCLKYENCSIMRMNRNRCQQCRFKKCLSVGMSR [N41Y] the abundance fitness was -0.492 ± 0.35. With CKVCGDVASGFHYGVHACEGCKGFFRRSIQQNIQYKKCLKCENCSIMRMNRNRCQQCRFKKCLSVGMSR [N41C] the abundance fitness was -0.738 ± 0.19. CKVCGDVASGFHYGVHACEGCKGFFRRSIQQNIQYKKCLKDENCSIMRMNRNRCQQCRFKKCLSVGMSR [N41D] showed an abundance fitness of -0.225 ± 0.24. For CKVCGDVASGFHYGVHACEGCKGFFRRSIQQNIQYKKCLKVENCSIMRMNRNRCQQCRFKKCLSVGMSR [N41V], the abundance fitness was -0.446 ± 0.13. In the case of CKVCGDVASGFHYGVHACEGCKGFFRRSIQQNIQYKKCLKAENCSIMRMNRNRCQQCRFKKCLSVGMSR [N41A], the abundance fitness is reported as -0.219 ± 0.085. CKVCGDVASGFHYGVHACEGCKGFFRRSIQQNIQYKKCLKTENCSIMRMNRNRCQQCRFKKCLSVGMSR [N41T] gave an abundance fitness of -0.047 ± 0.12. Variant CKVCGDVASGFHYGVHACEGCKGFFRRSIQQNIQYKKCLKPENCSIMRMNRNRCQQCRFKKCLSVGMSR [N41P] has an abundance fitness of -0.264 ± 0.13. Variant CKVCGDVASGFHYGVHACEGCKGFFRRSIQQNIQYKKCLKLENCSIMRMNRNRCQQCRFKKCLSVGMSR [N41L] has an abundance fitness of -0.348 ± 0.12. In the case of CKVCGDVASGFHYGVHACEGCKGFFRRSIQQNIQYKKCLKGENCSIMRMNRNRCQQCRFKKCLSVGMSR [N41G], the abundance fitness is reported as -0.036 ± 0.09. Work on CKVCGDVASGFHYGVHACEGCKGFFRRSIQQNIQYKKCLKHENCSIMRMNRNRCQQCRFKKCLSVGMSR [N41H] yielded an abundance fitness of -0.638 ± 0.25. For CKVCGDVASGFHYGVHACEGCKGFFRRSIQQNIQYKKCLKEENCSIMRMNRNRCQQCRFKKCLSVGMSR [N41E], the abundance fitness was -0.063 ± 0.089. CKVCGDVASGFHYGVHACEGCKGFFRRSIQQNIQYKKCLKMENCSIMRMNRNRCQQCRFKKCLSVGMSR [N41M] gave an abundance fitness of -0.586 ± 0.17. CKVCGDVASGFHYGVHACEGCKGFFRRSIQQNIQYKKCLKWENCSIMRMNRNRCQQCRFKKCLSVGMSR [N41W] showed an abundance fitness of -0.664 ± 0.24. Variant CKVCGDVASGFHYGVHACEGCKGFFRRSIQQNIQYKKCLKNENCRIMRMNRNRCQQCRFKKCLSVGMSR [S45R] has an abundance fitness of -0.259 ± 0.051. Variant CKVCGDVASGFHYGVHACEGCKGFFRRSIQQNIQYKKCLKNENCLIMRMNRNRCQQCRFKKCLSVGMSR [S45L] has an abundance fitness of -0.183 ± 0.1. With CKVCGDVASGFHYGVHACEGCKGFFRRSIQQNIQYKKCLKNENCTIMRMNRNRCQQCRFKKCLSVGMSR [S45T] the abundance fitness was -0.133 ± 0.13. CKVCGDVASGFHYGVHACEGCKGFFRRSIQQNIQYKKCLKNENCKIMRMNRNRCQQCRFKKCLSVGMSR [S45K] showed an abundance fitness of -0.646 ± 0.44. For CKVCGDVASGFHYGVHACEGCKGFFRRSIQQNIQYKKCLKNENCYIMRMNRNRCQQCRFKKCLSVGMSR [S45Y], the abundance fitness was -0.045 ± 0.14. CKVCGDVASGFHYGVHACEGCKGFFRRSIQQNIQYKKCLKNENCMIMRMNRNRCQQCRFKKCLSVGMSR [S45M] showed an abundance fitness of 0.156 ± 0.21. With CKVCGDVASGFHYGVHACEGCKGFFRRSIQQNIQYKKCLKNENCPIMRMNRNRCQQCRFKKCLSVGMSR [S45P] the abundance fitness was -0.166 ± 0.13. CKVCGDVASGFHYGVHACEGCKGFFRRSIQQNIQYKKCLKNENCVIMRMNRNRCQQCRFKKCLSVGMSR [S45V] showed an abundance fitness of -0.056 ± 0.1. With CKVCGDVASGFHYGVHACEGCKGFFRRSIQQNIQYKKCLKNENCAIMRMNRNRCQQCRFKKCLSVGMSR [S45A] the abundance fitness was -0.424 ± 0.14. Variant CKVCGDVASGFHYGVHACEGCKGFFRRSIQQNIQYKKCLKNENCWIMRMNRNRCQQCRFKKCLSVGMSR [S45W] has an abundance fitness of -0.54 ± 0.18. For CKVCGDVASGFHYGVHACEGCKGFFRRSIQQNIQYKKCLKNENCCIMRMNRNRCQQCRFKKCLSVGMSR [S45C], the abundance fitness was -0.03 ± 0.16. CKVCGDVASGFHYGVHACEGCKGFFRRSIQQNIQYKKCLKNENCIIMRMNRNRCQQCRFKKCLSVGMSR [S45I] showed an abundance fitness of -0.039 ± 0.14. CKVCGDVASGFHYGVHACEGCKGFFRRSIQQNIQYKKCLKNENCGIMRMNRNRCQQCRFKKCLSVGMSR [S45G] showed an abundance fitness of -0.119 ± 0.11. In the case of CKVCGDVASGFHYGVHACEGCKGFFRRSIQQNIQYKKCLKNENCNIMRMNRNRCQQCRFKKCLSVGMSR [S45N], the abundance fitness is reported as 0.261 ± 0.19. CKVCGDVASGFHYGVHACEGCKGFFRRSIQQNIQYKKCLKNENYSIMRMNRNRCQQCRFKKCLSVGMSR [C44Y] showed an abundance fitness of -0.183 ± 0.32.
